These results are taken from PMC8154891, “TAPBPR promotes antigen loading on MHC-I molecules using a peptide trap” (Nature Communications, 2021).

Where “and” joins values, the source holds several entries; their conditions need not be identical. Equal entries are not always repeated.

Data set [1] has as its system HLA-A*02:01/hβ2m. The following applies: DSF, 7 μM HLA-A*02:01/hβ2m in complex with the peptide, 10× SYPRO orange, 1 °C/min, pH 7.2; n = 3 technical replicates. Background: In DSF a fluorescence change marks the thermal transition of the protein.
Data set [2] addresses peptide-deficient (empty) HLA-A*02:01/hβ2m (human). The data set can be described thus: ITC. On the technique in general: ITC needs no label: the signal is the heat of the interaction.
In data set [3] the target is TAMRA-TAX9 in complex with HLA-A*02:01 (hβ2m) (human | HTLV-1). The data set can be described thus: fluorescence polarisation. (Fluorescence polarisation rises when a labelled molecule tumbles more slowly, as on binding a larger partner.)
Data set [4] addresses TAPBPR^WT (TAP-binding protein related, wild-type, luminal domain) (human). Put plainly: ITC.
For data set [5], the target named is TAPBPR^ΔG24-R36 (luminal domain, deletion of residues G24-R36) (human). Put plainly: ITC.
Data set [6] concerns the target T1, peptide-deficient HLA-A*02:01/hβ2m/TAPBPR^WT complex (Homo sapiens, UniProt P04439, D140Y/D185E/D98H/E176V/E277Q/G131W/G231S/I119V/I121R/I166T/I218V/L300P/L318F/N151K/N90K/P208A/P217A/Q86G/Q94H/R138H/R169H/T345S).
T1 construct: DNA plasmid constructs encoding the luminal domain of human HLA-A*02:01 (heavy chain); made in house; TAPBPR: Drosophila S2 cells
Put plainly: ITC, KD4: peptide titrated into empty HLA-A*02:01/TAPBPR^WT complex with excess TAPBPR. In kind it is binding. To be noted: ~150–200 μM peptide into ~15 μM peptide-deficient complex and 50 μM excess TAPBPR, pH 7.2, one-site fit, error from fit.

Data set [7] addresses T2, peptide-deficient HLA-A*02:01/hβ2m/TAPBPR^ΔG24-R36 complex (Homo sapiens, UniProt P04439, D140Y/D185E/D98H/E176V/E277Q/G131W/G231S/I119V/I121R/I166T/I218V/L300P/L318F/N151K/N90K/P208A/P217A/Q86G/Q94H/R138H/R169H/T345S).
T2 construct: DNA plasmid constructs encoding the luminal domain of human HLA-A*02:01 (heavy chain); made in house
Put plainly: ITC, KD4: peptide titrated into empty HLA-A*02:01/TAPBPR^ΔG24-R36 complex with excess TAPBPR. To be noted: ~150–200 μM peptide into ~15 μM peptide-deficient complex and 50 μM excess TAPBPR, pH 7.2, one-site fit, error from fit. In kind it is binding.

Data set [8] concerns the target T3, HLA-A*02:01/hβ2m (empty MHC-I released from TAPBPR^WT complex) (Homo sapiens, UniProt P04439, D140Y/D185E/D98H/E176V/E277Q/G131W/G231S/I119V/I121R/I166T/I218V/L300P/L318F/N151K/N90K/P208A/P217A/Q86G/Q94H/R138H/R169H/T345S).
T3 construct: DNA plasmid constructs encoding the luminal domain of human HLA-A*02:01 (heavy chain); made in house; TAPBPR: Drosophila S2 cells
The data set can be described thus: ITC, KD2,app: peptide titrated into peptide-deficient HLA-A*02:01/hβ2m/TAPBPR^WT complex, no excess TAPBPR. The following applies: ~50–100 μM peptide into ~15 μM peptide-deficient complex, 50 mM NaCl, 20 mM sodium phosphate pH 7.2, one-site fit, one technical replicate, error from fit. The class given is binding.

Data set [9] addresses T4, HLA-A*02:01/hβ2m (empty MHC-I released from TAPBPR^ΔG24-R36 complex) (Homo sapiens, UniProt P04439, D140Y/D185E/D98H/E176V/E277Q/G131W/G231S/I119V/I121R/I166T/I218V/L300P/L318F/N151K/N90K/P208A/P217A/Q86G/Q94H/R138H/R169H/T345S).
T4 construct: DNA plasmid constructs encoding the luminal domain of human HLA-A*02:01 (heavy chain); made in house
The data set can be described thus: ITC, KD2,app: peptide titrated into peptide-deficient HLA-A*02:01/hβ2m/TAPBPR^ΔG24-R36 complex, no excess TAPBPR. The following applies: ~50–100 μM peptide into ~15 μM peptide-deficient complex, pH 7.2, one-site fit, one technical replicate, error from fit. In kind it is binding.

In data set [10] the target is HLA-A*01:01 (Homo sapiens, UniProt P04439, A114D/A174V/A182V/D101N/D185E/E176A/E190D/L180R/Q94H/R68K/S129P/T187R/V100A/V91M/W191G). To be noted: yeast-displayed TAPBPR, flow cytometry.
Data set [11] deals with MHC-I. The following applies: read-out: estimated KD of the MHC-I/TAPBPR interaction; SPR experiments of an analogous system; cited from earlier work.
Data set [12] deals with TAX8/HLA-A*02:01/hβ2m. The data set can be described thus: FP, KD3: TAPBPR titrated into TAMRA-TAX9 and TAX8/HLA-A*02:01/hβ2m. The class given is binding, human. To be noted: TAPBPR (0–80 μM) titrated into 1 nM TAMRA-TAX9 and 50 nM TAX8/HLA-A*02:01/hβ2m; 25 °C, pH 7.2, 0.05% tween-20; read-out: KD3 from FP.

Regarding LLFGGGGYPVYV [TAX12], the “Tm of pMHC-I complex” value in [1] is 53.2 °C.

Regarding “TAPBPR^WT (TAP-binding protein related, wild-type, luminal domain) (domain or fragment)”, the Kd in data set [2] was 37.4 nM and 30.6 nM and 38.8 nM; in data set [3], 2000 nM.

For orientation: stoichiometry N means a count of units in the complex or per binding partner. As for “TAX9/HLA-A*02:01/hβ2m (from UniProt P61769 21-119) (peptide-MHC)”, in data set [4], the Kd was found to be 1900 nM and the stoichiometry N came out at 1.02. The same molecule had a Kd in [5] of 1800 nM.

Regarding “TAPBPR^ΔALAS (luminal domain, deletion of residues A29-S32) (domain or fragment)”, in data set [3], the Kd amounted to 2000 nM.

Turning to LLFGGYPVYV [TAX10], in data set [1], the “Tm of pMHC-I complex” value is 58.9 °C.

`CC[C@H](C)[C@H](NC(=O)[C@H](CCC(=O)O)NC(=O)[C@H](CC(C)C)NC(=O)[C@H](CC(C)C)NC(=O)[C@@H](N)CCCCN)C(=O)N1CCC[C@H]1C(=O)N[C@@H](CC(=O)O)C(=O)N1CCC[C@H]1C(=O)N[C@@H](CC(=O)O)C(=O)N[C@@H](CCCCN)C(=O)N[C@@H](CC(N)=O)C(=O)N[C@@H](Cc1c[nH]c2ccccc12)C(=O)N[C@@H](C)C(=O)N[C@H](C(=O)N[C@@H](CC(C)C)C(=O)O)[C@@H](C)O` [KLL15]: the Kd in data set [6] amounted to 21600 ± 7000 nM; in data set [7], 49500 ± 8600 nM; in data set [8], 383 ± 22 nM; in data set [9], 334 ± 20 nM.

Consider “TAPBPR^ΔG24-R36 (luminal domain, deletion of residues G24-R36) (domain or fragment)”, for which the Kd in data set [2] is 13.9 nM and 11.1 nM and 14.2 nM; in data set [3] it was 2000 nM.

B1: TAPBPR WT: wild-type human TAPBPR; luminal domain from S2 cells in vitro, FLAG-tagged full length in Expi293F cells (protein, UniProt Q9BX59 19-468, looked up)
Tapasin-related protein: AETKPHPAEGQWRAVDVVLDCFLAKDGAHRGALASSEDRARASLVLKQVPVLDDGSLEDFTDFQGGTLAQDDPPIIFEASVDLVQIPQAEALLHADCSGKEVTCEISRYFLQMTETTVKTAAWFMANMQVSGGGPSISLVMKTPRVTKNEALWHPTLNLPLSPQGTVRTAVEFQVMTQTQSLSFLLGSSASLDCGFSMAPGLDLISVEWRLQHKGRGQLVYSWTAGQGQAVRKGATLEPAQLGMARDASLTLPGLTIQDEGTYICQITTSLYRAQQIIQLNIQASPKVRLSLANEALLPTLICDIAGYYPLDVVVTWTREELGGSPAQVSGASFSSLRQSVAGTYSISSSLTAEPGSAGATYTCQVTHISLEEPLGASTQVVPPERRTALGVIFASSLFLLALMFLGLQRRQAPTGLGLLQAERWETTSCADTQSSHLHEDRTARVSQPS
modifications: FLAG tag
As for B1, the “binding of HLA-A*01:01 tetramers” value in [10] is on record as “No binding”. Also, the Kd is ~190 nM in data set [11] and ~2000 nM in data set [12].
